Test results reported in IntAct's records for PubMed 25416956.

B1: Lipopolysaccharide-induced tumor necrosis factor-alpha factor (Homo sapiens), Q99732 (parent)
chain: MSVPGPYQAATGPSSAPSAPPSYEETVAVNSYYPTPPAPMPGPTTGLVTGPDGKGMNPPSYYTQPAPIPNNNPITVQTVYVQHPITFLDRPIQMCCPSCNKMIVSQLSYNAGALTWLSCGSLCLLGCIAGCCFIPFCVDALQDVDHYCPNCRALLGTYKRL
partner: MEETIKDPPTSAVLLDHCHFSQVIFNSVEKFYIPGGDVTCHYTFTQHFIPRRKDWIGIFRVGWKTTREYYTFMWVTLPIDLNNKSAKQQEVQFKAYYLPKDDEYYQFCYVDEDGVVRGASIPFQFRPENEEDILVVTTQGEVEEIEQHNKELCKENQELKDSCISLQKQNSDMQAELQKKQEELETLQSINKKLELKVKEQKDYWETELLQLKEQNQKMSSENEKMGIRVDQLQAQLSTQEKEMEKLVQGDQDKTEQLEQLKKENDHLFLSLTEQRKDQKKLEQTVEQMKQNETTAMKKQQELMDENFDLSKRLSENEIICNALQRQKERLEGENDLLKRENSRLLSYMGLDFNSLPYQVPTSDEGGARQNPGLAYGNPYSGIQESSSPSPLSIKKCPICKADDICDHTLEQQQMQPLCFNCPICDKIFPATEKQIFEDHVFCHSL
B2: Keratin, type II cytoskeletal 6A (Homo sapiens), P02538 (parent)
chain: MASTSTTIRSHSSSRRGFSANSARLPGVSRSGFSSVSVSRSRGSGGLGGACGGAGFGSRSLYGLGGSKRISIGGGSCAISGGYGSRAGGSYGFGGAGSGFGFGGGAGIGFGLGGGAGLAGGFGGPGFPVCPPGGIQEVTVNQSLLTPLNLQIDPTIQRVRAEEREQIKTLNNKFASFIDKVRFLEQQNKVLETKWTLLQEQGTKTVRQNLEPLFEQYINNLRRQLDSIVGERGRLDSELRGMQDLVEDFKNKYEDEINKRTAAENEFVTLKKDVDAAYMNKVELQAKADTLTDEINFLRALYDAELSQMQTHISDTSVVLSMDNNRNLDLDSIIAEVKAQYEEIAQRSRAEAESWYQTKYEELQVTAGRHGDDLRNTKQEIAEINRMIQRLRSEIDHVKKQCANLQAAIADAEQRGEMALKDAKNKLEGLEDALQKAKQDLARLLKEYQELMNVKLALDVEIATYRKLLEGEECRLNGEGVGQVNISVVQSTVSSGYGGASGVGSGLGLGGGSSYSYGSGLGVGGGFSSSSGRAIGGGLSSVGGGSSTIKYTTTSSSSRKSYKH
partner: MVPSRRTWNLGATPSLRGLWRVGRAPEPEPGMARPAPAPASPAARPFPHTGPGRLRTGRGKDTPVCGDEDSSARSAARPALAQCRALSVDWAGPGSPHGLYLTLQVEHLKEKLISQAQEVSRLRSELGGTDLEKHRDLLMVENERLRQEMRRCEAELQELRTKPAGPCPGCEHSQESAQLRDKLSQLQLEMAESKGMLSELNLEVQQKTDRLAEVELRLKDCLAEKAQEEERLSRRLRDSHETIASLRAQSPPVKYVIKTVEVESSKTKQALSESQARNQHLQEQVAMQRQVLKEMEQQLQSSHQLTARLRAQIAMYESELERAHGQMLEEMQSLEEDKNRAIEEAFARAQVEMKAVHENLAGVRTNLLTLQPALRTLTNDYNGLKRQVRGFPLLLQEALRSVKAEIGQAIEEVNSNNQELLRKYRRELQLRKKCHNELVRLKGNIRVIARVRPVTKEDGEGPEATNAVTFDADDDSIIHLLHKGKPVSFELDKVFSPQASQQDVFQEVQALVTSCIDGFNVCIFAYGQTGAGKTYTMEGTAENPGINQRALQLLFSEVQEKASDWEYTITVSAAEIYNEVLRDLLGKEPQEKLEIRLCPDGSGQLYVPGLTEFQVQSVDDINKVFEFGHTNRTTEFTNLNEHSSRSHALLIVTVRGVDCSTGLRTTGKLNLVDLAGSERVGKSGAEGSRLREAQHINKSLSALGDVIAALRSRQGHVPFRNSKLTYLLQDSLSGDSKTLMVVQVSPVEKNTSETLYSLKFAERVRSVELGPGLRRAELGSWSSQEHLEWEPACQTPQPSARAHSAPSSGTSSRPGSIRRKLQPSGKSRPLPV
B3: Forkhead box protein P3 (Homo sapiens), Q9BZS1 (parent)
chain: MPNPRPGKPSAPSLALGPSPGASPSWRAAPKASDLLGARGPGGTFQGRDLRGGAHASSSSLNPMPPSQLQLPTLPLVMVAPSGARLGPLPHLQALLQDRPHFMHQLSTVDAHARTPVLQVHPLESPAMISLTPPTTATGVFSLKARPGLPPGINVASLEWVSREPALLCTFPNPSAPRKDSTLSAVPQSSYPLLANGVCKWPGCEKVFEEPEDFLKHCQADHLLDEKGRAQCLLQREMVQSLEQQLVLEKEKLSAMQAHLAGKMALTKASSVASSDKGSCCIVAAGSQGPVVPAWSGPREAPDSLFAVRRHLWGSHGNSTFPEFLHNMDYFKFHNMRPPFTYATLIRWAILEAPEKQRTLNEIYHWFTRMFAFFRNHPATWKNAIRHNLSLHKCFVRVESEKGAVWTVDELEFRKKRSQRPSRCSNPTPGP

Variants of: B1
Conditions: with caco2_human CALCOCO2, Q13137

How did the “effect of a mutation on the interaction” value turn out when A111G was run?
The value was “disrupting interaction”.

Variants of: B2
Conditions: with kifc3_human KIFC3, Q9BVG8

A463P was tested. Which “effect of a mutation on the interaction” value did it give?
The value was “disrupting interaction”.

Variants of: B2
Conditions: with kifc3_human KIFC3, Q9BVG8
Remark: another data set of the same source

Which “effect of a mutation on the interaction” value does the source give for N171K here?
The value was “disrupting interaction”.

Variants of: B2
Conditions: with kifc3_human KIFC3, Q9BVG8
Remark: another data set of the same source

For I462S, which “effect of a mutation on the interaction” value is on record?
The value was “disrupting interaction”.

Variants of: B3
Conditions: with pr20c_human PRR20C

Which “effect of a mutation on the interaction” value does the source give for I363V here?
Its value is “disrupting interaction”.

Variants of: B3
Conditions: with rbpms_human RBPMS

For I363V, which “effect of a mutation on the interaction” value is on record?
Its value is “disrupting interaction”.

Variants of: B3
Conditions: with pr20c_human PRR20C
Remark: another data set of the same source

For Q70H, which “effect of a mutation on the interaction” value is on record?
The value was “disrupting interaction”.

Variants of: B3
Conditions: with rbpms_human RBPMS
Remark: another data set of the same source

Q70H was tested. Which “effect of a mutation on the interaction” value did it give?
The value was “disrupting interaction”.
